Reference: US20190218304A1, “POTENTIATING THE EFFECT OF ATP RELEASE” (INNATE PHARMA, priority 2017, published 2019)

How the values were obtained:
[1] = test system: CD39 mutants (Table 1) expressed in Hek-293T cells; test: Epitope mapping: flow cytometry binding to CD39 mutants in Hek-293T cells; set-up: species or system human
Procedure: CD39 mutants were generated by PCR. The sequences amplified were run on agarose gel and purified using the Macherey Nagel PCR Clean-Up Gel Extraction kit (reference 740609). The purified PCR products generated for each mutant were then ligated into an expression vector, with the ClonTech InFusion system. The vectors containing the mutated sequences were prepared as Miniprep and sequenced. After sequencing, the vectors containing the mutated sequences were prepared as Midiprep using the Promega PureYield™ Plasmid Midiprep System. HEK293T cells were grown in DMEM medium (Invitrogen), transfected with vectors using Invitrogen's Lipofectamine 2000 and incubated at 37° C. in a […] incubator for 48 hours prior to testing for transgene expression. The targeted amino acid mutations in the table 1 below are shown using numbering of SEQ ID NO: 1.
In order to define the epitopes of anti-CD39 antibodies, we designed CD39 mutants defined by substitutions of amino acids exposed at the molecular surface over the surface of CD39.
Mutant 5 contains amino acid substitutions at residues Q96, N99, E143 and R147.
Mutants were transfected in Hek-293T cells, as shown in the table 1, using numbering of SEQ ID NO: 1. […] Mutant 19 includes substitutions at residues R138, M139 and E142.
Mutants were transfected in Hek-293T cells, as shown in the table 1, using numbering of SEQ ID NO: 1. […]

[2] = target: T1, soluble recombinant human CD39 protein (Homo sapiens, UniProt P49961); test: Inhibition of the enzymatic activity of soluble CD39 (Cell Titer Glo); type: biochemical; settings: result in words
T1 construct: made in house; host or cells: CHO cells
T1 sequence (P49961 with tags, fused parts or gaps): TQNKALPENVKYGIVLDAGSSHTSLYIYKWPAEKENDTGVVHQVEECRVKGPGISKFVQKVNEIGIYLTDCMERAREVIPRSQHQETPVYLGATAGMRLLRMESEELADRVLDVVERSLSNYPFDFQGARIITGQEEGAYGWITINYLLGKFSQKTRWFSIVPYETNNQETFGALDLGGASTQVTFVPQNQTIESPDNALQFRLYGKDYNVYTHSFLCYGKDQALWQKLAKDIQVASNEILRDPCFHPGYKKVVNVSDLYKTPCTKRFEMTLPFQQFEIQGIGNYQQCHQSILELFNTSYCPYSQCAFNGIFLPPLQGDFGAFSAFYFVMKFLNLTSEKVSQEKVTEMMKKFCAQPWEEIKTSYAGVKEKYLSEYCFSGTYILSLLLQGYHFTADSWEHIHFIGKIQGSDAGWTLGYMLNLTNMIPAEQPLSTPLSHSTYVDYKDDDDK
Procedure: The inhibition by antibodies of the enzymatic activity of soluble CD39 protein produced was evaluated using Cell Titer Glo™ (Promega, reference G7571) that allows assessment of ATP hydrolysis through use of a reagent that generates a luminescent signal proportional to the amount of ATP present. In this way, inhibition of the soluble-CD39-meidatd ATP hydrolysis can be assessed. Briefly, dose ranges of anti-CD39 antibodies from 100 μg/ml to 6×10^−3 μg/ml were incubated with 400 ng/ml of soluble recombinant human CD39 protein having the amino acid sequence described in the Methods section (SEQ ID NO: 39), for 1 h at 37° C. 20 μM ATP was added to the plates for 30 additional minutes at 37° C. before addition of CTG (Cell Titer Glo) reagent. Emitted light was quantified using an Enspire™ luminometer after a short incubation period of 5 min in the dark. Anti-CD39 antibody efficacy was determined by comparing emitted light in presence of antibody with ATP alone (maximal light emission) and ATP together with soluble CD39 protein (minimal light emission).

B1: I-399: anti-CD39 antibody, VH SEQ ID NO: 27, VL SEQ ID NO: 28 (antibody, listed as Mus musculus, V domains shown)
VH: PVQLQQPGAEVVMPGASVKLSCKASGYTFTSFWMNWMRQRPGQGLEWIGEIDPSDFYTNSNQRFKGKATLTVDKSSSTAYMQLSSLTSEDSAVYFCARGDFGWYFDVWGTGTSVTVSS
VL: EIVLTQSPTTMTSSPGEKITFTCSASSSINSNYLHWYQQKPGFSPKLLIYRTSNLASGVPTRFSGSGSGTSYSLTIGTMEAEDVATYYCQQGSSLPRTFGGGTKLEIK
[1]; mutant 11: N371K, L372K, E375A, K376G, V377A and insertion 377V
  binding to cells expressing mutant 11 of CD39: loss of binding
[1]; remaining mutants of the 20 generated
  binding to the other CD39 mutants of Table 1: without loss of binding to any of the other 20 mutants
[2]
  inhibition of the enzymatic (ATPase) activity of soluble CD39 protein: inhibition of soluble CD39
